Data published in the supplement of paper PMC10567573.
± gives the standard deviation.

Experiment: protein stability index of a GFP-peptide fusion (GPS, HEK-293T) (PSI 1-6); higher = more stable
Conditions: c terminus: a fixed tail appended
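Also: 24-mer peptide tiles fused after GFP, lentivirally expressed, FACS-sorted into six equal bins by GFP/DsRed ratio, decoded by Illumina sequencing, PSI is the read-weighted mean bin number.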

Sequence	protein stability index (treatment: DMSO)	protein stability index (treatment: MLN4924 1 uM, 8 h)
STLLPLAPSNSTSLNSTFGSTNLT [NFE2L1]	3.64 ± 0.19	3.86 ± 0.16
KEQVLRKGTENLQRAQAEVLQSVR [FCHSD1]	4.5 ± 0.096	4.56 ± 0.27
VRLQSIHTMRKISNNITLREDQLD [INTS4]	3.2 ± 0.055	3.3 ± 0.36
CNVDLLKIIQLGLTFMNEQGEYPP [CNOT7]	2.96 ± 1.3	2.48 ± 0.18
QYVITHAKVNILLVENDQQLQKIL [ACSBG2]	2.5 ± 0.58	2.13 ± 0.2
ELRNVQDVVEDYKKRYEEEINKRT [KRT71]	3.62 ± 0.35	4.45 ± 0.24
PPKASEQETAKEEDGSVELESQVQ [C18orf25]	5.42 ± 0.17	5.67 ± 0.081
CFYRGYTSGVAAVQDWYHFHYVDI [SCNN1D]	3.06 ± 0.86	2.92 ± 0.75
NVLGAQLDVEAAHSEILKYFQSVT [STX5]	2.76 ± 0.25	2.88 ± 0.33
EGSLQQPKAQSAMSPYLVPDTQAL [SMG5]	4.39 ± 0.27	4.5 ± 0.18
YPTTLGKDRECQSQSLALKEQNNL [ZNF8]	4.39 ± 0.16	4.52 ± 0.19
TSSSDDDEEVSGSSKTITAEIPDG [C18orf25]	5.59 ± 0.19	5.49 ± 0.23
RNLARSQSVKMKDKLKIDLLPDGR [TAF7L]	4.09 ± 0.28	4.25 ± 0.2
DLQVNRNFSLATNTKYSVYIYVYF [R3HDM1]	2.59 ± 0.59	2.88 ± 0.078
VPQPARMPYISDKHPRQTLEVINL [KLHL20]	2.88 ± 0.2	3.2 ± 0.31
MSDKYHDSDEATAARLLFNMAGVT [DCTD]	3.53 ± 0.25	3.54 ± 0.36
VIDKETIDLLAFTSVAELELLGLE [SDE2]	2.27 ± 0.52	2.73 ± 0.48
KEAQYIRTELVEQAFRAIDRADYY [PCMTD2]	2.71 ± 0.27	2.88 ± 0.36
VEAVAYAPKKELINIKGISEAKAD [RAD51]	4.49 ± 0.22	4.52 ± 0.41
SRSESPPPLSDPKQAKVVARRESG [BRD3]	5.5 ± 0.21	5.24 ± 0.17
IGLDNGTISEFILSEDYNKMTPVK [WDFY2]	2.98 ± 0.47	3.16 ± 0.54
LAESEFESAAFSQGSRSGVSGGSR [PHTF1]	4.83 ± 0.3	4.93 ± 0.32
PVAQSTDAIRGKVGYTRGLHVWQI [SPSB1]	2.15 ± 0.13	2.21 ± 0.17

Sequence	protein stability index (treatment: DMSO)	protein stability index (treatment: MLN4924 1 uM, 8 h)
CSSRPLQKGSHPMCKEHEDEKINI [TRIM63]	4.81 ± 0.093	4.84 ± 0.24
MPDYMILQELKKLKNSNYESIQQT [PPTC7]	2.5 ± 0.41	2.93 ± 0.39
CIHTGLSQYIAVEAAEGRNKNEVF [FBXO3]	3.38 ± 0.49	3.48 ± 0.19
SVVRDLKGYPDGVKSIVVKGYNIW [TLE6]	2.26 ± 0.26	2.23 ± 0.21
FVVMGVIGGLLGATFNCLNKRLAK [CLCN6]	2.55 ± 0.39	2.7 ± 0.59
LTGLQLKLGPALKIYEYHVKPLQT [SAMD13]	2.26 ± 0.29	2.47 ± 0.42
MQVDKKRVYLATDDPSLLKEAKTK [FUT8]	4.06 ± 0.21	3.92 ± 0.32
VLASFILDDGEIDEIRWKYHSDTT [IQUB]	2.5 ± 0.23	2.18 ± 0.3
LHPVQKVILNYPSPWDQEERPAQR [TRAF3IP2]	3.4 ± 0.37	3.66 ± 0.34
DHDPTIEDAYKIRIRIDDEPANLD [RIT1]	4.86 ± 0.19	4.84 ± 0.21
MYTPAYGDFDFDEVKFPNASDMFR [MYORG]	3.1 ± 0.3	3.16 ± 0.26
TSEDLRLQCDAVNLAFGRRCEELE [TEKT4]	4.51 ± 0.32	4.71 ± 0.29
LYQRAPRNIHRHVILSEIKEAVAA [TCF25]	2.75 ± 0.34	2.7 ± 0.25
RVDPTRVNEFGMSGEDPTAAAPVA [CLPTM1]	4.98 ± 0.099	5.02 ± 0.2
QSYFKTIEDFQQKILLTKSENARL [KRT36]	3.05 ± 0.42	2.77 ± 0.23
YMNFRVKACNKAVAGEFSEPVTLE [FSD1]	3.03 ± 0.29	2.93 ± 0.46
KMNLYESFAQATQLGDLHTCLMMD [INTS3]	2.5 ± 0.2	2.58 ± 0.37
TNYNNVCRKFPRDMKAMSPENQEY [RHOBTB2]	3.8 ± 0.12	4.13 ± 0.12
MAVPPGHGPFSGFPGPQEHTQVLP [DYRK1B]	3.75 ± 0.29	3.66 ± 0.065
VDDLKGSLKEDLTQHKFICEQCGK [SPRY1]	5.03 ± 0.3	4.88 ± 0.26
PADCKRKEEAGAPGGGAGMAAGFP [CEBPB]	5.12 ± 0.35	5.29 ± 0.098
GKSFCHSTHLTVHRRIHTGEKPYE [ZNF8]	3 ± 0.16	3.35 ± 0.3
ELRLQSEAFKKHSLDLLSKERELN [CCDC89]	3.8 ± 0.2	3.69 ± 0.42

Sequence	protein stability index (treatment: DMSO)	protein stability index (treatment: MLN4924 1 uM, 8 h)
TKPTQGASSASEPQGLFVEALSVP [CLPTM1]	4.13 ± 0.097	4.29 ± 0.19
DDLQQLQLFTEYGRLAMDEIFQKP [ATL3]	3.31 ± 0.26	3.57 ± 0.21
NAANRTGYVPSNYVERKNSLKKGS [NCK2]	4.33 ± 0.3	4.45 ± 0.18
PSQRLVQNCLWTLRNLSDAATKQE [CTNNB1]	3.31 ± 0.18	3.19 ± 0.25
NHLPPQTKRSSRNPVFQDSWDTES [FAM104A]	4.48 ± 0.29	4.59 ± 0.46
LLSVDAFAAPSPATTASPAKVDSS [SNAP91]	4.86 ± 0.21	4.87 ± 0.07
DIQIVERKKSADVLALADEAGYYF [ADAMTSL2]	3.08 ± 0.23	3.39 ± 0.2
CSISKMEEEAGQTSIEPSKSSIIP [ZER1]	4.59 ± 0.28	4.53 ± 0.2
DKDCSLDCAGSPQKPLCASDGRTF [SMOC2]	4.68 ± 0.39	4.76 ± 0.34
QSILLNTRLQDCYVDSPALTNIWM [C22orf31]	2.24 ± 0.24	2.1 ± 0.36
DKMEAYNIDETCGRHHSQSTEVQA [TEKT4]	4.91 ± 0.19	4.9 ± 0.17
EMRTKEQILELLVLEQFLTILPQE [ZNF263]	2.44 ± 0.35	2.26 ± 0.43
VGHARGLHAWQINWPARQRGTHAV [SPSB4]	2.96 ± 0.43	2.87 ± 0.24
YVIGGRNETGYLSSVECYNLETNE [KLHL14]	2.66 ± 0.31	3.02 ± 0.59
GVTAIIFCVALSDYDLVLAEDEEM [GNAI1]	3.86 ± 0.17	2.75 ± 0.9
SRPVKGQVVTVHLQTSLENGTRVQ [FKBP8]	3.38 ± 0.45	3.51 ± 0.26
FWEEHKASLGREESRAPSPLLHKD [CBY2]	4.61 ± 0.17	4.71 ± 0.21
HTGERPFQCNQCGASFTQKGNLLR [IKZF1]	2.21 ± 0.29	2.79 ± 0.52
RYFGARAILGEQRPRQRQRVYPKC [TCF25]	3.84 ± 0.32	3.58 ± 0.21
SSNRIRHLRTHTGERPYKCSECGE [ZNF263]	4.28 ± 0.089	4.44 ± 0.24
VGEPEFHYIAGAHGNEVLGRELLL [CPXM2]	2.88 ± 0.62	3.25 ± 0.2
FSPNSPQFNVSGPGLLEEDNQWMT [NECAB1]	3.23 ± 0.34	3.58 ± 0.3
SREITTLANNQCMATESVDHELGR [EHMT1]	4.8 ± 0.28	4.84 ± 0.26

Sequence	protein stability index (treatment: DMSO)	protein stability index (treatment: MLN4924 1 uM, 8 h)
FSTILHLLLGSPHPAATALHAELC [LPCAT4]	3.14 ± 0.47	2.73 ± 0.53
QGRFCTIFRSYSRGAQGILLVYDI [RAB40C]	2.74 ± 0.61	3.1 ± 0.64
NLVAGCLQLNARSFMMGQGGEAAH [NEUROD6]	2.34 ± 0.22	2.02 ± 0.11
EKYSVATQLFIGGVTGWCTGFIFQ [FUNDC2]	2.75 ± 0.75	3.06 ± 0.35
YTSSQKVSPIQIDGAGRTWQDSDT [TOR1AIP2]	3.62 ± 0.36	4.2 ± 0.51
QQCVDKESSLGSESEEEEEFYDAD [SLC22A15]	5.52 ± 0.45	5.33 ± 0.33
KRFASLSRFVETLVVADDKMAAFH [ADAMTS4]	2.25 ± 0.52	2.06 ± 0.58
HTKPSQAPAVEVAPAGASYNPSFE [NOP53]	4.86 ± 0.36	4.95 ± 0.19
LSLSNATVLTRSLFLGRILSLTSS [FANCE]	3.06 ± 0.64	2.88 ± 0.34
NLTSPASITFTTGLEAPRDLEAKE [TNXB]	5.21 ± 0.51	5.51 ± 0.36
NHEIMPGGSVNITCVAVGSPMPYV [PTPRD]	2.15 ± 0.8	2.28 ± 0.16
ALRLAELARRRRRRQARREAEADK [NOP53]	4.12 ± 0.21	4.37 ± 0.82
EWENNRESLIVFMEQVHRGIKGLV [CPXM2]	2.27 ± 0.56	2.07 ± 0.37
PDDLLTTLDDTCDLFAPLVQETNK [ATF4]	5.12 ± 0.23	5.14 ± 0.22
PRSAEPGYLVTKVVAVDRDSGQNA [PCDHGA10]	4.77 ± 0.16	4.7 ± 0.29
EAEADKPRRLGRLKYQAPDIDVQL [NOP53]	4.63 ± 0.22	4.4 ± 0.2
DDILYHVKGMQRIVNQWSEKFSDE [DLC1]	3.52 ± 0.14	3.75 ± 0.28
RLVESLSTQIRALTEQQEQLRGQL [RASAL3]	2.38 ± 0.21	2.34 ± 0.26
YCKPTRLDLLLDMPPVSYDVQLLH [SPSB1]	2.2 ± 0.23	2.14 ± 0.33
LHEVLTEVVPIHGRGNFPTLEITL [TENT5C]	2.73 ± 0.56	2.53 ± 0.53
